The record followed here is the supplement of paper PMC12636428.

This data set deals with Saccharomyces cerevisiae. As to the kind of experiment: transcriptional activation domain activity (GFP:mCherry ratio, weighted mean of sorted bins, harmonized to initial dataset scale) (arbitrary fluorescence ratio units); higher = stronger transcriptional activation. To be noted: beta-estradiol 1 µM; induction time 4 h. The gist of the method: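 The listed activation activity is a read-weighted mean of bin median fluorescence, averaged across barcodes and linearly mapped onto the initial dataset scale. Barcoded tiles, fused to an estradiol-inducible synthetic transcription factor, were integrated at URA3 in yeast diploids bearing a GFP reporter. Cells were held 4 hours at 30 °C in SC with 1 uM beta-estradiol, sorted into 8 GFP:mCherry bins, and sequenced, and tiles with fewer than 50 reads were excluded.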
As to “GSERRERRSERRRSRDRSGERRRSKREEGSSRRPQSPEDEDRQQRRHRRHRHR”, the “transcriptional activation domain activity” value was determined as 16500.

Turning to “HCCRLLFLLFLFLFFFLLLFICFFLRLLRLLFPHRNTNLTRPIADPIIPIIPP”, the “transcriptional activation domain activity” value was determined as 46900.

For the sequence “ASLHCLRSSPSSSSPCAARERSSSRARTSSSMCPIAPTHKPRSSTGSPARGTP”, the “transcriptional activation domain activity” value is 19900.

In the case of “QKLSWIDNSGFRWLIMPFIWSSFFIQWLAVFFEICIVILQLRVIAWWLGWLVC”, the “transcriptional activation domain activity” value is 60700.

With “MLSYGSFFFLIFFVFFVISLGFLLSCSWMLYSHIWCCDGPRIFFLFVNLLFVS”, the “transcriptional activation domain activity” value stood at 38300.

“FAQRKSPFTQLLAFFLTRGCVIAGYQIILLIVPLLAGVSYTWVPLLFCLSRVY”: the “transcriptional activation domain activity” value came out at 62100.

For “LLVTLMQVPDTDQVVLFNKVLSVIVLVMAHHHELGGPRFDQRPFLRLFSSILA”, the “transcriptional activation domain activity” value was found to be 43800.

In the case of “WLRVRKFTVTLATFVEPGTESILCGLYGAYALTTLPFFHNIGISSTWTSFFLI”, the “transcriptional activation domain activity” value was found to be 36600.

Consider “MREDITQIDLITFYLCIFLSITVFVELIILCWIRILSIFNVCLFALLLCQLVY”, for which the “transcriptional activation domain activity” value is 33700.

With “SRKESRKEKSESKPVKAGKKEGKEKGKGKEGKEGKADGEKAAKPKKEKKEKKE”, the “transcriptional activation domain activity” value is 17700.

On to “DDPDVEESDDEPVELWVARGEDRCDACKQRNIRVCEPQWGAPRSSACKTCARK”, for which the “transcriptional activation domain activity” value amounted to 31700.

Regarding “GESDDEGGGGRKRKKAKVEPAPKVKVERKPAAPVQEGEKKKRGRPRKVAPLPA”, the “transcriptional activation domain activity” value was 24400.

For the sequence “YTRVVTRFKRLFVSSRGYTAFIPALFKVFCDVEHLAPIRSAIVFAWCRFYAVH”, the “transcriptional activation domain activity” value came out at 67300.

For the sequence “DKQLDYEFIDKSGIIPSDNQSHPRISNIHDNAIDMVTLKNGEEVAISWYDISH”, the “transcriptional activation domain activity” value is 59800.

Regarding “EGGEKGTKEGGEKKEGAGEKEGGEKKEGGEKEGAKEGGEIGAKEGEEKKEGGE”, the “transcriptional activation domain activity” value was 17500.

In the case of “RSLLWQLSVWSFIKLMILMLFGYRMEAISILGREVMLPRGLIGLGYDSIDHCG”, the “transcriptional activation domain activity” value worked out at 47800.

As to “SNAAWGVMITFFQIIGLFDKYPIYWDSRLGDVVKAVSITILNTDYINLQCAYG”, the “transcriptional activation domain activity” value amounted to 73900.

As for “KLRHRLEDEKEANFFRAIIHFTGLRLPQARSKPVNVVRGILLVLCQLVQFSGR”, the “transcriptional activation domain activity” value was found to be 57100.

Turning to “RNVIRGCRKPLSSRYVFLMSVTRLVIPLYFYVCPYNIIALKPSKWIWLLVLYV”, the “transcriptional activation domain activity” value is 62600.

On to “KWIVPTPFASHAFHCLDGYFQSIPYHLYVYLVPMQKWLYISMFLFVNVWTVMI”, for which the “transcriptional activation domain activity” value was found to be 48400.

Consider “SKHATEAEKKKEEEKKSKSKEAPAKKEKKEKVKEEKPKEKVVAKIPEPAPSEP”, for which the “transcriptional activation domain activity” value stood at 20200.

For “SGRTATSAKSHNIISGYREEVEQANLNLSLIDSQVVLLRAWKLLAMELCPFAF”, the “transcriptional activation domain activity” value came to 55900.

For the sequence “MYVEIFFLSLVWRIIIVLSLTSKGVFFNITYLFFRFLFSLVLCIFFFLHFFSL”, the “transcriptional activation domain activity” value stood at 43100.

For “GCDYVFSMYVLGAGLWLFIFYLPPIVFSIVCLCYLTLIWAVSWVLLWCLIFIL”, the “transcriptional activation domain activity” value was determined as 53900.

As for “GKRARGVGKLRPSVVLYNELHKDGEGVGEVARRDLVGSSKGKGRSGVDTLLVV”, the “transcriptional activation domain activity” value worked out at 59800.

“MSFFWDTSLCACVTRIREMSFWEFLVGLAFFFFFLVKGSCICVACFFFFFFWS”: the “transcriptional activation domain activity” value was 34200.

As for “LHQSGITHVYYLVENYSKQILLSHFLLNDISFRGWIMLLRNMSFRSIRHCQST”, the “transcriptional activation domain activity” value was 54800.

With “FNIVAFGIIILDFWGMIGIWTQKFGFHHVWEVWLYQVYYGLFVCPWYSYSQIM”, the “transcriptional activation domain activity” value was found to be 80200.

“WYHYLPLCGTIFLILLPQPSWLWILVDFHLQTLHRPGLFIIHLLVSYTLIFMI”: the “transcriptional activation domain activity” value stood at 38500.

Take “GGSGASPPPPDNRPPEERYAEQLRQLNDMGFYDFDRNVAALRRSGGSVQGAIE”: the “transcriptional activation domain activity” value is 29100.

With “MMSMFWGWHGQRNGVFSGVLGFGILLVTWFFFFFKFSPHILLIISVYGHFGFF”, the “transcriptional activation domain activity” value is 81500.

“TSAAPAFGTSGFSAAKPATPAQASAFGSPAALGAKASPWGAQNSSSSGTTAGA”: the “transcriptional activation domain activity” value came to 31100.

For the sequence “TKQGHELLHQLRHLIIFREGMPCSDITLKLDIHVSKLVFVFLSAFEHGLCSKD”, the “transcriptional activation domain activity” value was determined as 58200.

Consider “MKLPWDDSVTIFLVNYVDFLLLFPFVLLMEFIFDDLPWLSLYVLKHYYNILYM”, for which the “transcriptional activation domain activity” value came to 38600.

“GKGKPRDNAKEEEKEEERKIPQAIVVSGLHHASTAAQLALSSALREGEIEMDG”: the “transcriptional activation domain activity” value was found to be 15000.

In the case of “LFCALMPIRFYTYFKQSFQYYLADLCYYVNLLLLIFLWVLPTSCSLFISVFSL”, the “transcriptional activation domain activity” value worked out at 78400.

As for “YLAYCWQPDISWCPNLTLLNHWYNLTPYWFILMFIWNNLSCILMMINMIQLYF”, the “transcriptional activation domain activity” value was 67800.

Take “MRLIYLPIIFCRLPSHGWTIWMPIIRALSLLVFSLIYLLFIGDLPALTLTIFF”: the “transcriptional activation domain activity” value was 50900.

Take “GDAHAAPKGRKGGGKKRKAADEDGEEEGEAEKPAKKAGKRGKKGKATPTQEEG”: the “transcriptional activation domain activity” value came out at 12100.

As to “YVKSRGYKTIIRFFPHEVADLELARACMRGAAREPRQWALRYAALLWLALICM”, the “transcriptional activation domain activity” value worked out at 68700.

As to “GVDDADHEEEEEEEEEEEQEGARYGALMGGLGVAQGAMRILAPAVAGGVYAVS”, the “transcriptional activation domain activity” value was found to be 67300.

On to “GQVELFTHHTSLRHIFFRLEKLGYRLVVIQLTDSFVISQPSLYISALLLALRG”, for which the “transcriptional activation domain activity” value is 35400.

Turning to “GDKNKRKRGDSAASEAQAGQQEAAKEVQQKKKRVRSKGKAAAPPVAQASAGAS”, the “transcriptional activation domain activity” value was 45300.

Take “TPYWVLWNLRSSYGPVWQFLLKWIPFNMLLHRYYHCVKMELGYLFIFGNDFLR”: the “transcriptional activation domain activity” value was 56300.

Regarding “TDEAESKKAEEVPKTAEEAKPEESKAEETAMADETPKTEEAKPEDVKVEAHKE”, the “transcriptional activation domain activity” value was 19400.

For “MFKCRNRYCYGSCVDLLCYLILGLDFLWIFCFLFFKRFFFRFLLSIPFSFFPS”, the “transcriptional activation domain activity” value was 64600.

For the sequence “LLFFSLSLFKKKYLPFILFFFFFYSSLFFFFYPFLFNFFSFFLIFFFFFSLQV”, the “transcriptional activation domain activity” value came to 34300.

Turning to “ASFLVLRDIRLLDCFSVLASCGYVSLFPLIYTCDEWLIKVVYTLLWYIIYYFS”, the “transcriptional activation domain activity” value stood at 84300.

“KVKKKRRRSDSSDEDAIAALKAKRKKKKRADSDSDEEETSRKKSKSKRRRKAD”: the “transcriptional activation domain activity” value came to 42800.

Turning to “FARVLLNGWFRTFHKVVSTAECVAWLVLFLPYAIGVLLVVRCVLGFHDIPKPK”, the “transcriptional activation domain activity” value came out at 45500.

Consider “HKWIIPTPFASHAFHPVDGYLQSVPYHLFVFIFPLHRILYLVLFVLINFWTIF”, for which the “transcriptional activation domain activity” value amounted to 62300.

Take “QRGKPYDLHSSDGSSEKKRTEKVGLSAGKQHMWILLRPKAAMWAVCVVLASPE”: the “transcriptional activation domain activity” value was found to be 38700.

Consider “MMLVQSIPVSRDVILGVLLRLLAPTVFLSSVVLALLLVSTLCKIPKQGRLRAW”, for which the “transcriptional activation domain activity” value was determined as 64600.

“MADAVADAAANLKLEEGAAENAPKLQLDEETGEWVSKGELKKRLAKRAKKASK”: the “transcriptional activation domain activity” value worked out at 14100.

For the sequence “DGHFGSDFGWVWPFSFSLFCFLFCILHFLVYCTHNVLLWKQLSLNFLFCIFHG”, the “transcriptional activation domain activity” value turned out to be 54100.
